We go through 4 molecules from publication PMC8978259, “Structural and biochemical insights into lipid transport by VPS13 proteins” (The Journal of Cell Biology, 2022).

The target in data set [1] is PxP(Mcp1ct)-VABct(1,944-2,635)-His6 (C. thermophilum). The data set is described as follows: SEC; Superdex 200 gel filtration in buffer A (20 mM Hepes pH 7.8, 500 mM NaCl, 1 mM TCEP, 10% glycerol); monomer or dimer read from the elution profile.
Data set [2] shares this target. The data set is described as follows: negative stain EM; class averages of purified constructs; monomer or dimer.
Data set [3] deals with the molecule itself. As to the kind of experiment: SEC; Superdex 200 gel filtration in buffer A (20 mM Hepes pH 7.8, 500 mM NaCl, 1 mM TCEP, 10% glycerol); monomer or dimer read from the elution profile.

With PxP(Mcp1ct)-VABct(1,944-2,635)-His6, the stoichiometry N in data set [1] and in data set [2] was 2 in each case.

B1: PxP(Mcp1sc)-VABsc(1,869-2,545)-His6 (other, S. cerevisiae, UniProt Q12106 2-20, looked up)
chain: IKLHEVPPEPVDPASLPHDKPYQLVNDTELDFDVWIQDKTTEDNKNEVVLLKANTSLPWEFEDWRSIREKLDIDKSKNILGVCVSGQNYKTIMNIDATTEGENLHVLSPPRNNVHNRIVCEARCDENNVKIITFRSTLVIENTTSTEIELLVDSKDPNKPSLKYAIKPHQSKSVPVEYAYDSDIRIRPASEDIYDWSQQTLSWKSLLSNQMSIFCSSKEDSNQRFHFEIGAKYDEREPLAKIFPHMKIVVSASMTIENLLPADINFSIFDKREEKRTDFLKTGESMEVHHISLDSFLLMSVQPLQDEASASKPSIVNTPHKSPLNPEDSLSLTLSGGQNLLLKLDYKNIDGTRSKVIRIYSPYIIMNSTDRELYIQSSLLNIAQSKILLENEKRYTIPKMFSFDKEDDKSNRARIRFKESEWSSKLSFDAIGQSFDASVRIKNKEQESNLGINISEGKGKYLLSKVIEIAPRYIISNTLDIPIEVCETGSMDVQQIESNITKPLYRMRNIVDKQLVLKFLGGDSNWSQPFFIKNVGVTYLKVLKNSRHKLLKIEILLDKATIFIRIKDGGDRWPFSIRNFSDHDFIFYQRDPRKVSDPYKDDQSNESSSRSFKPIFYRIPSKSIMPYAWDFPTAKEKYLVLESGTRTREVRLAEIGELPPLRLDKRSKDKPAPIVGLHVVADDDMQALVIVNYKAN
notes: Mcp1p of S. cerevisiae, Pro-X-Pro motif, residues 2-20; also called PXP-VABsc; source: E. coli BL21 (DE3), purified (Ni-NTA, Superdex 200)
B1: the “stoichiometry N” value in data set [3] turned out to be 2.

B2: PxP(Ypt35sc)-VABsc(1,869-2,545)-His6 (other, S. cerevisiae, UniProt P38815 2-22, looked up)
chain: SDKISFLPPEPIQLLDEDSTEKPYQLVNDTELDFDVWIQDKTTEDNKNEVVLLKANTSLPWEFEDWRSIREKLDIDKSKNILGVCVSGQNYKTIMNIDATTEGENLHVLSPPRNNVHNRIVCEARCDENNVKIITFRSTLVIENTTSTEIELLVDSKDPNKPSLKYAIKPHQSKSVPVEYAYDSDIRIRPASEDIYDWSQQTLSWKSLLSNQMSIFCSSKEDSNQRFHFEIGAKYDEREPLAKIFPHMKIVVSASMTIENLLPADINFSIFDKREEKRTDFLKTGESMEVHHISLDSFLLMSVQPLQDEASASKPSIVNTPHKSPLNPEDSLSLTLSGGQNLLLKLDYKNIDGTRSKVIRIYSPYIIMNSTDRELYIQSSLLNIAQSKILLENEKRYTIPKMFSFDKEDDKSNRARIRFKESEWSSKLSFDAIGQSFDASVRIKNKEQESNLGINISEGKGKYLLSKVIEIAPRYIISNTLDIPIEVCETGSMDVQQIESNITKPLYRMRNIVDKQLVLKFLGGDSNWSQPFFIKNVGVTYLKVLKNSRHKLLKIEILLDKATIFIRIKDGGDRWPFSIRNFSDHDFIFYQRDPRKVSDPYKDDQSNESSSRSFKPIFYRIPSKSIMPYAWDFPTAKEKYLVLESGTRTREVRLAEIGELPPLRLDKRSKDKPAPIVGLHVVADDDMQALVIVNYKAN
notes: Ypt35p of S. cerevisiae, Pro-X-Pro motif, residues 2-22; also called PXP-VABsc; source: E. coli BL21 (DE3), purified (Ni-NTA, Superdex 200)
B2: the “stoichiometry N” value in data set [3] turned out to be 2.

B3: PxP(Spo71sc)-VABsc(1,869-2,545)-His6 (other, S. cerevisiae, UniProt Q03868 380-400, looked up)
chain: SHLPFINILPPWPTELTEEERKPYQLVNDTELDFDVWIQDKTTEDNKNEVVLLKANTSLPWEFEDWRSIREKLDIDKSKNILGVCVSGQNYKTIMNIDATTEGENLHVLSPPRNNVHNRIVCEARCDENNVKIITFRSTLVIENTTSTEIELLVDSKDPNKPSLKYAIKPHQSKSVPVEYAYDSDIRIRPASEDIYDWSQQTLSWKSLLSNQMSIFCSSKEDSNQRFHFEIGAKYDEREPLAKIFPHMKIVVSASMTIENLLPADINFSIFDKREEKRTDFLKTGESMEVHHISLDSFLLMSVQPLQDEASASKPSIVNTPHKSPLNPEDSLSLTLSGGQNLLLKLDYKNIDGTRSKVIRIYSPYIIMNSTDRELYIQSSLLNIAQSKILLENEKRYTIPKMFSFDKEDDKSNRARIRFKESEWSSKLSFDAIGQSFDASVRIKNKEQESNLGINISEGKGKYLLSKVIEIAPRYIISNTLDIPIEVCETGSMDVQQIESNITKPLYRMRNIVDKQLVLKFLGGDSNWSQPFFIKNVGVTYLKVLKNSRHKLLKIEILLDKATIFIRIKDGGDRWPFSIRNFSDHDFIFYQRDPRKVSDPYKDDQSNESSSRSFKPIFYRIPSKSIMPYAWDFPTAKEKYLVLESGTRTREVRLAEIGELPPLRLDKRSKDKPAPIVGLHVVADDDMQALVIVNYKAN
notes: Spo71p of S. cerevisiae, Pro-X-Pro motif, residues 380-400; also called PXP-VABsc; source: E. coli BL21 (DE3), purified (Ni-NTA, Superdex 200)
B3: the “stoichiometry N” value in data set [3] came out at 2.
